Biological target: MBP2-ISEF-N1G1N2-(…)-NVDE1-184-…-FKBP2-GSRS-6His (bacteriophage M13; yeast; human) (UniProt P69168)
Experiment: cell-based or functional assay

MBP2-ISEF-N1G1N2-(…)-NVDE1-184-…-FKBP2-GSRS-6His (bacteriophage M13; yeast; human), sequence (P69168 19-265, tags or fused parts left off): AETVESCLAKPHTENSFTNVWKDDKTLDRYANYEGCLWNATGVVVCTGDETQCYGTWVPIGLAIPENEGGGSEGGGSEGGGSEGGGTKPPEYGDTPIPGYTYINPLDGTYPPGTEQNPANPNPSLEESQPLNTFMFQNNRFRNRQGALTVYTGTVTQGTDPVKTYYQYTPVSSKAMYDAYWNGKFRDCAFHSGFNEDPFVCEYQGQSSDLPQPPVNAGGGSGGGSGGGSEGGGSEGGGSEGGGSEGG

## phage displaying the fusion protein FRB-TS-CVDE390-454-GSGGGS-CTg3p (from UniProt P42345 2021-2113; P17255 390-454)
  phages recovering infecting ability counted as colony forming units, with against without rapamycin (10 µM): 100 times

Reference: US20100273669A1
